For four molecules, IC50 and EC50 results are on record in US20220389120A1 (published 2022).

In general, IC50 refers to the midpoint of a concentration-inhibition curve. The EC50 is the midpoint of the concentration-response curve.

For test [1], the target named is T1, recombinant human Ang2 (Biolegend) (human, UniProt O15123 19-496).
T1 chain: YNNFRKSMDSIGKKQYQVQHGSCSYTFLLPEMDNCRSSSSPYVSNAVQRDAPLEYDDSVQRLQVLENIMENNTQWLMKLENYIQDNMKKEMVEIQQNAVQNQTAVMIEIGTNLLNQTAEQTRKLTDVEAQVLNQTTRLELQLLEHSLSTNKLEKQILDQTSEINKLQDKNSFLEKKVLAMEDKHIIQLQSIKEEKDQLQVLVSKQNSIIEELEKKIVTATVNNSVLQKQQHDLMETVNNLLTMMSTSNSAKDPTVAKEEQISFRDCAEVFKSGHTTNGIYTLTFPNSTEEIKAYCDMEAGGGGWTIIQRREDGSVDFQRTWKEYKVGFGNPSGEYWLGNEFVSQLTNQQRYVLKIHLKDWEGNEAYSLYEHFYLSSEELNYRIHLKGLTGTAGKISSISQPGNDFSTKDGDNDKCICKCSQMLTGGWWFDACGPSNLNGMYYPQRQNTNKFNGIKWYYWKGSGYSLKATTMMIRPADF
Kind of test: Ang2-Tie2 blocking ELISA; Test 2.

Test [2] concerns the target T1, recombinant human Ang2 (Biolegend). Put plainly: Ang2-Tie2 blocking ELISA; Test 1. In general terms: ELISA stands for enzyme-linked immunosorbent assay.
For test [3] the target is unchanged. Put plainly: ELISA.
In the next test the target is PD-1 (UniProt Q15116 25-167). Put plainly: PD-1 blocking assay.
The target of test [4] is T1, recombinant human Ang2 (Biolegend). Kind of test: Ang2-Tie2 blocking ELISA; Test 3.

Sequence of PD-1 (Q15116 25-167): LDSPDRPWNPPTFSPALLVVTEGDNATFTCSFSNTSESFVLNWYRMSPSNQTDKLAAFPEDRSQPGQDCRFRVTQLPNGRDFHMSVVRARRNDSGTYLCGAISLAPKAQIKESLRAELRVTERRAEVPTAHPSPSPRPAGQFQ

B1: A2Z-ld (Fc fusion)
chain: ESKYGPPCPPCPAPEFLGGPSVFLFPPKPKDTLMISRTPEVTCVVVDVSQEDPEVQFNWYVDGVEVHNAKTKPREEQFNSTYRVVSVLTVLHQDWLNGKEYKCKVSNKGLPSSIEKTISKAKGQPREPQVYTLPPSQEEMGGAQTNFMPMDDLEQRLYEQFILQQGGGGSGGGGSGGGGSGGGGSTNFMPMDDLEQRLYEQFILQQGLETKNQVSLTCLVKGFYPSDIAVEWESNGQPENNYKTTPPVLDSDGSFFLYSRLTVDKSRWQEGNVFSCSVMHEALHNHYTQKSLSLSLGKGGGGGAQSDTGRPFVEMYSEIPEIIHMTEGRELVIPCRVTSPNITVTLKKFPLDTLIPDGKRIIWDSRKGFIISNATYKEIGLLTCEATVNGHLYKTNYLTHRQTNTIIDVVLSPSHGIELSVGEKLVLNCTARTELNVGIDFNWEYPSSKHQHKKLVNRDLKTQSGSEMKKFLSTLTIDGVTRSDQGLYTCAASSGLMTKKNSTFVRVHEKLE
In the case of B1, the IC50 in test [1] was determined as 0.21 nM; in test [2], 0.19 nM.

B2: GS01-A (other)
heavy: QVQLVQSGAEVKKPGASVKVSCKASGYTFTSYYIHWVRQAPGQGLEWMGWIFPGSGNSKYNENFKGRVTLTADTSTSTVYMELSSLRSEDTAVYYCASETYDYGDYWGQGTLVTVSSASTKGPSVFPLAPCSRSTSESTAALGCLVKDYFPEPVTVSWNSGALTSGVHTFPAVLQSSGLYSLSSVVTVPSSSLGTKTYTCNVDHKPSNTKVDKRVESKYGPPCPPCPAPEFLGGPSVFLFPPKPKDTLMISRTPEVTCVVVDVSQEDPEVQFNWYVDGVEVHNAKTKPREEQFNSTYRVVSVLTVLHQDWLNGKEYKCKVSNKGLPSSIEKTISKAKGQPREPQVYTLPPSQEEMGGAQTNFMPMDDLEQRLYEQFILQQGGGGSGGGGSGGGGSGGGGSTNFMPMDDLEQRLYEQFILQQGLETKNQVSLTCLVKGFYPSDIAVEWESNGQPENNYKTTPPVLDSDGSFFLYSRLTVDKSRWQEGNVFSCSVMHEALHNHYTQKSLSLSLGKGGGGSGGGGSGGGGSGGGGSEVQLVESGGGLVQPGGSLRLSCAASGFTISDYWIHWVRQAPGKGLEWVAGITPAGGYTYYADSVKGRFTISADTSKNTAYLQMNSLRAEDTAVYYCARFVFFLPYAMDYWGQGTLVTVSSGGGGSGGGGSGGGGSGGGGSDIQMTQSPSSLSASVGDRVTITCRASQDVSTAVAWYQQKPGKAPKLLIYSASFLYSGVPSRFSGSGSGTDFTLTISSLQPEDFATYYCQQGYGNPFTFGQGTKVEIK
light: DIQMTQSPSFLSASVGDRVTITCKASQNVGTNVAWYQQKPGKAPKALIYSASYRYSGVPSRFSGSGSGTEFTLTISSLQPEDFATYYCQQYYSYPYTFGQGTKLEIKRTVAAPSVFIFPPSDEQLKSGTASVVCLLNNFYPREAKVQWKVDNALQSGNSQESVTEQDSKDSTYSLSSTLTLSKADYEKHKVYACEVTHQGLSSPVTKSFNRGEC
With B2, the EC50 in test [3] came to 0.211 µg/mL. The same molecule gave an IC50 with PD-1 of 0.272 nM.

B3: ZA2-ld (protein)
chain: SDTGRPFVEMYSEIPEIIHMTEGRELVIPCRVTSPNITVTLKKFPLDTLIPDGKRIIWDSRKGFIISNATYKEIGLLTCEATVNGHLYKTNYLTHRQTNTIIDVVLSPSHGIELSVGEKLVLNCTARTELNVGIDFNWEYPSSKHQHKKLVNRDLKTQSGSEMKKFLSTLTIDGVTRSDQGLYTCAASSGLMTKKNSTFVRVHEKESKYGPPCPPCPAPEFLGGPSVFLFPPKPKDTLMISRTPEVTCVVVDVSQEDPEVQFNWYVDGVEVHNAKTKPREEQFNSTYRVVSVLTVLHQDWLNGKEYKCKVSNKGLPSSIEKTISKAKGQPREPQVYTLPPSQEEMGGAQTNFMPMDDLEQRLYEQFILQQGGGGSGGGGSGGGGSGGGGSTNFMPMDDLEQRLYEQFILQQGLETKNQVSLTCLVKGFYPSDIAVEWESNGQPENNYKTTPPVLDSDGSFFLYSRLTVDKSRWQEGNVFSCSVMHEALHNHYTQKSLSLSLGK
For B3, the results for the IC50 in test [1] and in test [4] were 0.2 nM and 0.03 nM, respectively.

B4: ZA2-ls (protein)
chain: SDTGRPFVEMYSEIPEIIHMTEGRELVIPCRVTSPNITVTLKKFPLDTLIPDGKRIIWDSRKGFIISNATYKEIGLLTCEATVNGHLYKTNYLTHRQTNTIIDVVLSPSHGIELSVGEKLVLNCTARTELNVGIDFNWEYPSSKHQHKKLVNRDLKTQSGSEMKKFLSTLTIDGVTRSDQGLYTCAASSGLMTKKNSTFVRVHEKESKYGPPCPPCPAPEFLGGPSVFLFPPKPKDTLMISRTPEVTCVVVDVSQEDPEVQFNWYVDGVEVHNAKTKPREEQFNSTYRVVSVLTVLHQDWLNGKEYKCKVSNKGLPSSIEKTISKAKGQPREPQVYTLPPSQEEMGGAQTNFMPMDDLEQRLYEQFILQQGLETKNQVSLTCLVKGFYPSDIAVEWESNGQPENNYKTTPPVLDSDGSFFLYSRLTVDKSRWQEGNVFSCSVMHEALHNHYTQKSLSLSLGK
For the molecule B4, in test [4], the half-inhibitory concentration (IC50) is 0.1 nM.
